doi:10.1101/2025.06.24.660003

Target: human plasma glycoproteins
Assay: far-Western, overlay or dot blot; human or rat plasma diluted 1:10, boiled with LDS sample buffer and 50 mM DTT, separated on 3-8% polyacrylamide gradient gels, transferred to BioTraceNT; GST-SLBR 5 nM in DPBS with 1x Blocking Reagent, 90 min, room temperature; detected with anti-GST

GST-tagged Siglec-like binding region of Hsa, V370F mutant (from UniProt A8AWU7 220-453) (domain or fragment)
fold decrease in total binding against wild type: 3 fold
